Experimental data as given in PMC8790569.

How the values were obtained:
[1] = tested on: T1, AnLexA (Anabaena sp. strain PCC 7120), ORF:0695c96d; assay: EMSA; details: 20 mM Tris-Cl pH 7.5, 1 mM EDTA, 20 ul, RT 30 min; 10% native PAGE in 0.5x TBE
T1 sequence: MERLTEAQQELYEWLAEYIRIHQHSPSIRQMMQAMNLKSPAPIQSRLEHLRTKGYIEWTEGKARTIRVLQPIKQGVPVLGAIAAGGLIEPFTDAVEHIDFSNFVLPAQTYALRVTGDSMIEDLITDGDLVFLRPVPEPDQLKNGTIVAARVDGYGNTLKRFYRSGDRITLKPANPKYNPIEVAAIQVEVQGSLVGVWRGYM

[2] = tested on: T2, AzuR (Anabaena sp. strain PCC 7120), ORF:06435f25; assay: EMSA; details: 20 mM Tris-Cl pH 7.5, 1 mM EDTA, 20 ul, RT 30 min; 10% native PAGE in 0.5x TBE
T2 sequence: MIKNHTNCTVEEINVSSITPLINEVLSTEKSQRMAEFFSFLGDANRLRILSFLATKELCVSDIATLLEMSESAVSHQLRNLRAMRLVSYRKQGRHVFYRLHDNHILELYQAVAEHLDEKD

[3] = target: AzuR (Alr0831) (Anabaena sp. strain PCC 7120); assay: SEC; Superdex 75, 20 mM Tris, 100 mM NaCl, pH 7.5, 25 °C, 0.5 ml/min; calibrated with gel filtration markers
[4] = target: AzuR (Alr0831) (Anabaena sp. strain PCC 7120); assay: cross-linking; purified AzuR (5 ug) with 10 mM glutaraldehyde, room temperature, 10-15 min, 10 mM Tris pH 7.5; cracking buffer without DTT; 15% SDS-PAGE, Coomassie

Row | stoichiometry N [3] | stoichiometry N [4] | Substance | binding [1] | binding [2]
1 | – | – | AAACGTATTATATAACCTAATTGTTACATTTTATTAAGCAATACTTGAACATCTGTTCAGGTATTGTAGTGTAATCACAAGTGAAAACGGAGGAAATAAT (double strand) [PnmtA (100 bp upstream of nmtA ORF)] | no binding | binds
2 | 2 | 2 | AzuR (Alr0831) (natural protein) | – | –
